Assay [1] deals with T1, human interleukin-3 (IL-3) receptor alpha-chain (CD123), on cells (human, UniProt P26951 19-378).
T1 construct: whole, on cells; also called human CD123
The assay can be described thus: flow cytometry (PE-A), recombinant human IgG4 mAb + labeled secondary antibody, parental MOLM-13 cells against MOLM-13 CD123KO. The source says:
FIGS. 20A-20B. MOLM-13 cells with CRISPR/Cas9-mediated knockout of the CD123 locus (MOLM-13^CD123KO), parental MOLM-13 cells (endogenously expressing CD123) (FIG. 20A), ML-1 cells with CRISPR/Cas9-mediated knockout of the CD123 locus (ML-1^CD123KO), and ML-1^CD123KO cells in which human CD123 was re-expressed via lentivirus-mediated gene expression (FIG. 20B) were left untreated or treated with recombinant human anti-human CD123 mAbs (clones 1B5, 1D9, 1E3, 1F2, and 1G5; all human IgG4 frameworks) and a labeled secondary antibody before flow cytometric analysis.
(In flow cytometry, cells or beads pass a laser one at a time.)

Assay [2] addresses T1, human interleukin-3 (IL-3) receptor …. The assay can be described thus: flow cytometry (APC-A), mAb at 2 µg/mL + labeled secondary antibody; RS4;11 transduced with human CD123, TF-1, KG-1, MOLM-13 cells. The method, then: FIG. 1. Parental human RS4;11 cells (endogenously lacking CD123), RS4;11 cells transduced with human CD123, CD123-expressing human AML cells lines (TF-1, KG-1, MOLM-13), and MOLM-13 cells with CRISPR/Cas9-mediated knockout of the CD123 locus (CD123^KO) were left untreated or treated with murine anti-human CD123 mAbs (10C4, 5G6, 11F11, 1H8; used at 2 µg/mL) or a commercial anti-CD123 mAbs (7G3, used at 2 µg/mL) and a labeled secondary antibody before flow cytometric analysis.

Assay [3] has the same target. The assay can be described thus: flow cytometry (APC-A), 30 min at 4 °C; bound fusion protein detected with APC-anti-hFc (tubes 1-5) or through Y-DOTA-biotin and APC-SA (tubes 6-8); RS4;11 cells expressing human CD123. The method, then:
FIG. 24. Flow cytometry-based binding assay of monomeric anti-CD123 BsAb derived from 10C4 binding sequences. 0.4×10⁶ CD123-negative parental RS4;11 cells (RSA) or RSA cells engineered to express human CD123 (RS4-CD123) were incubated with or without CD123 bispecific fusion protein from purification (FP) or crude supernatant (load), with or without Y-DOTA-biotin. After incubating for 30 min at 4° C. cells were washed twice and assayed by flow cytometry with fluorophore-labeled anti-human Fc receptor secondary Ab (tubes 1-5) to detect bound bispecific fusion protein, or fluorophore labeled […] secondary Ab (tubes 6-8) to detect functional capacity of bispecific fusion protein to bind both CD123+ target cells and the radioligand, Y-DOTA-biotin.

We go through 3 molecules from patent US20230295316A1 (FRED HUTCHINSON CANCER CENTER, published 2023).

B1: 123-ATX1F2, fully human recombinant antibody, human IgG4 framework (antibody)
heavy: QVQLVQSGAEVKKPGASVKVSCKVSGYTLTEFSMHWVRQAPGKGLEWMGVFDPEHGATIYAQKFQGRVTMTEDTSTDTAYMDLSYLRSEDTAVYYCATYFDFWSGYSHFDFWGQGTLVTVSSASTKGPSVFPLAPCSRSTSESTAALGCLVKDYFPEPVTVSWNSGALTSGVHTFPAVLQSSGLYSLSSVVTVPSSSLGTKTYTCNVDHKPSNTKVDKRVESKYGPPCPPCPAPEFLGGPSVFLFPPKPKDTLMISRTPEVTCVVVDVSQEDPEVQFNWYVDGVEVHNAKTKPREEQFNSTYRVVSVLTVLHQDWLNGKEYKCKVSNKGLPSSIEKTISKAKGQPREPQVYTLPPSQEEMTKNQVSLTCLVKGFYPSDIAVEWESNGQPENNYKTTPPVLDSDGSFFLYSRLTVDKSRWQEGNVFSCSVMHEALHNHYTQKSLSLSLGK
light: DIQMTQSPSSLSASVGDRVTITCRASQGIRNDLGWYQQRPGKAPKRLIYAASSLQSGVPSRFSGSGSGTEFTLAISSLQPEDFATYSCLQHNSYPWTFGQGTKVEIKRTVAAPSVFIFPPSDEQLKSGTASVVCLLNNFYPREAKVQWKVDNALQSGNSQESVTEQDSKDSTYSLSSTLTLSKADYEKHKVYACEVTHQGLSSPVTKSFNRGEC
notes: also called 1F2 (human IgG4)
Turning to B1, the binding result in assay [1] is given as “binds”.

B2: 123-11F11 (murine anti-CD123 antibody, IgG1 isotype, Kappa Light Chain) (antibody, V domains shown)
VH: EVTLVESGGGLEQPGGSLSLSCAASGFTFTDYYMSWVRQPPGKALEWLALIRNKANGYTTEYSASVKGRFTISRDNSQSILYLQMNALRAEDSATYYCARQVRNYYGYEEDALDYWGQGTSVTVSS
VL: DIVLTQSPASLAVSLGQRATISCRASESLDFYGNSFMHWYQQKSGQPPKLLISRASNLESGIPPRFSGSGSRTDFTLTIDPVEADDVATYYCQQSYEDPYTFGGGTKLEIK
notes: murine IgG1, kappa
On to B2, for which, in assay [2], the binding result is listed as “binds”.

B3: 10C4-Fc-C825 monomeric construct (monomeric anti-CD123 x anti-Y-DOTA bispecific antibody) (bispecific antibody, human IgG1)
chain: DIVMSQSPSSLAVSAGEKVTMSCKSSQSLLSSGTRKNYLAWYQQKPGQSPKLLIYWASTRESGVPDRFTGSGSGTDFTLTISSVQAEDLAVYYCKQSYILFTFGSGTKLEIKGGGSGGGGSGGGGSGGGGSSQVQLKESGPGLVAPSQNLSITCTVSGFSLTTYDINWIRQPPGKGLEWLGVIWTGGGTNYNSAFMSRLSISKDNSKSQVFLKMNSLQTDDTAMYYCVRGDTYHYALDFWGQGTSVTVSSLEPKSSDKTHTSPPSPAPELLGGPSVFLFPPKPKDTLMISRTPEVTCVVVDVSHEDPEVKFNWYVDGVEVHNAKTKPREEQYNSTYRVVSVLTVLHQDWLNGKEYKCKVSNKALPAPIEKTISKAKGQPREPQVYTLPPSRDELTKNQVSLTCRVKGFYPSDIAVEWESNGQPENNYKTTPPVLDSDGSFHLESKLTVDKSRWQQGNVFSCSVMHEGLHNHYTQKSLSLSPGKVDGASSHVNVSSPSVQDIHVKLQESGPGLVQPSQSLSLTCTVSGFSLTDYGVHWVRQSPGKGLEWLGVIWSGGGTAYNTALISRLNIYRDNSKNQVFLEMNSLQAEDTAMYYCARRGSYPYNYFDAWGCGTTVTVSSGGGGSGGGGSGGGGSQAVVIQESALTTPPGETVTLTCGSSTGAVTASNYANWVQEKPDHCFTGLIGGHNNRPPGVPARFSGSLIGDKAALTIAGTQTEDEAIYFCALWYSDHWVIGGGTRLTVLG
notes: Single chain: 10C4 VL, linker 1, 10C4 VH, hinge and human IgG1 Fc (monomerising substitutions), linker 2, C825 VH, linker 3, C825 VL; also called monomeric 10C4 BsAb; monomeric anti-CD123 BsAb
As for B3, in assay [3], the binding result is recorded as “binds”.
